Assay results reported in article PMC6414199, “Bim escapes displacement by BH3-mimetic anti-cancer drugs by double-bolt locking both Bcl-XL and Bcl-2” (eLife, 2019).

Key:
[1] = target: Bcl-XL single-cysteine mutant 152C, Alexa647-labelled (human) (UniProt Q07817); test: FRET or BRET; purified Alexa568-labelled BH3 protein (10 nM) and Alexa647-labelled Bcl-XL (40 nM) with liposomes, ABT-263 titrated in; 37 C, 1 h; relative displacements, not absolute affinity
mCerulean3-Bcl-2 (human) = mCerulean3-Bcl-2 (human) (UniProt P10415); test: FRET or BRET; FLIM-FRET in live MCF-7 cells: mCer3-Bcl-XL or mCer3-Bcl-2 stably expressed (donor), Venus-BH3 protein transiently expressed (acceptor); binding curves of FLIM-FRET efficiency against the Venus:mCer3 intensity ratio, 25 C; untreated, DMSO, 20 uM ABT-263 (18-24 h) or 1.25-20 uM A-1155463, A-1331852, ABT-263; R values interpolated at ratio 0.5 (Bcl-XL) or 0.25 (Bcl-2), ^VBad4E signal subtracted
Sequence of mCerulean3-Bcl-2 (human) (P10415 whole entry): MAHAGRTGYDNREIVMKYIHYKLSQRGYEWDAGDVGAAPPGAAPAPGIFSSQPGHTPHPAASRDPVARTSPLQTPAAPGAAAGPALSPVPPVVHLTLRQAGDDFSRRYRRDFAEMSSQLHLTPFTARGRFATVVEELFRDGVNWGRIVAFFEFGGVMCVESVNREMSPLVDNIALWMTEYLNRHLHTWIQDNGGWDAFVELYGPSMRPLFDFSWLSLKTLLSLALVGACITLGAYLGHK

[2] = target: mCerulean3-Bcl-XL (human) (UniProt Q07817); test: as above
Sequence of mCerulean3-Bcl-XL (human) (Q07817 whole entry): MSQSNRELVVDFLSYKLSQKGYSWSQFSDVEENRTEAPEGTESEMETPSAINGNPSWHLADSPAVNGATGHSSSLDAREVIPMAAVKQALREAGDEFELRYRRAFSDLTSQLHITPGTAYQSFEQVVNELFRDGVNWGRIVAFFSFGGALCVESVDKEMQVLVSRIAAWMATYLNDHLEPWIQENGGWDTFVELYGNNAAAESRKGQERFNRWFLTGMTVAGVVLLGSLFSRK

Sequence of Venus-BimEL-dCTS (domain or fragment) (O54918 whole entry, the tested form may be a part): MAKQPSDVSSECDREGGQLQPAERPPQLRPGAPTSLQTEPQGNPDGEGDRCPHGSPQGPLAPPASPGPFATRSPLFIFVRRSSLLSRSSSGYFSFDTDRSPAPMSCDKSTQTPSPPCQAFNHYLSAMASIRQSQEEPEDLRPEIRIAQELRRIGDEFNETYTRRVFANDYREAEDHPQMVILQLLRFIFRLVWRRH
Sequence of Venus-BimEL BH3-2A (O54918 whole entry): as the sequence (O54918 whole entry, the tested form may be a part) above
Sequence of Venus-BimEL-dN (domain or fragment) (O54918 whole entry, the tested form may be a part): as above
Sequence of Bcl-XL single-cysteine mutant 152C, Alexa647-labelled (human) (Q07817 other isoform, or with tags, fused parts or gaps mutant): as the sequence (Q07817 whole entry) above, with V152C counted along it

Row | Substance | R (ABT-263), % of FRET signal left with 20 uM ABT-263 (mCerulean3-Bcl-2 (human)) | R (ABT-263), % of FRET signal left with 20 uM ABT-263 [2] | R (BH3-2A), % of FRET signal of the same construct without BH3-2A (mCerulean3-Bcl-2 (human)) | R (BH3-2A), % of FRET signal of the same construct without BH3-2A [2] | other results
1 | Bid single-cysteine mutant 126C (tBid, added as cBid), Alexa568-labelled (domain or fragment) |  |  |  |  | IC50 of ABT-263 for displacing the pair [1]: 400 nM
2 | Venus-Bad with the BH3 region of Bim | 65.5% | 98% |  |  | 
3 | Venus-Bad-Bim BH3-2A |  |  | 54.9% | 70.2% | 
4 | Venus-Bad-Bim-I146Y | 53.2% | 83.2% |  |  | 
5 | Venus-Bad-Bim-I146Y BH3-2A |  |  |  | 46.6% | 
6 | Venus-Bad-Bim-I146Y-I153M | 69.1% | 89% |  |  | 
7 | Venus-Bad-Bim-I146Y-I153M BH3-2A |  |  | 42.6% | 56.8% | 
8 | Venus-Bad-Bim-I146Y-Q148R | 61.8% | 90.2% |  |  | 
9 | Venus-Bad-Bim-I146Y-Q148R BH3-2A |  |  | 37.7% | 50.5% | 
10 | Venus-Bad-Bim-I153M | 68.5% | 92.8% |  |  | 
11 | Venus-Bad-Bim-I153M BH3-2A |  |  | 102% | 96.5% | 
12 | Venus-Bad-Bim-Q148R | 53.5% | 89.8% |  |  | 
13 | Venus-Bad-Bim-Q148R BH3-2A |  |  | 56.9% | 74.5% | 
14 | Venus-BimEL BH3-2A (from UniProt O54918-1 1-196) (natural protein) |  |  | 66.8% | 81.4% | 
15 | Venus-BimEL with the BH3 region of Bad | 65.8% | 60.5% |  |  | 
16 | Venus-BimEL-Bad BH3-2A |  |  |  | 26.1% | 
17 | Venus-BimEL-Bad-dCTS | 12.5% | 40.2% |  |  | 

Row | Substance | R (ABT-263), % of FRET signal left with 20 uM ABT-263 (mCerulean3-Bcl-2 (human)) | R (ABT-263), % of FRET signal left with 20 uM ABT-263 [2] | R (BH3-2A), % of FRET signal of the same construct without BH3-2A (mCerulean3-Bcl-2 (human)) | R (BH3-2A), % of FRET signal of the same construct without BH3-2A [2] | other results
18 | Venus-BimEL-I146Y BH3-2A (from UniProt O54918-1 1-196) (natural protein) |  |  | 54.2% | 71% | 
19 | Venus-BimEL-I146Y-dCTS (domain or fragment) | 52.9% | 38.5% |  |  | 
20 | Venus-BimEL-I181E BH3-2A (from UniProt O54918-1 1-196) (natural protein) |  |  | 47.2% | 49.2% | 
21 | Venus-BimEL-I188E BH3-2A (from UniProt O54918-1 1-196) (natural protein) |  |  | 47.5% | 67.2% | 
22 | Venus-BimEL-L185A BH3-2A (from UniProt O54918-1 1-196) (natural protein) |  |  |  | 159% | 
23 | Venus-BimEL-L185F BH3-2A (from UniProt O54918-1 1-196) (natural protein) |  |  |  | 100% | 
24 | Venus-BimEL-L185G BH3-2A (from UniProt O54918-1 1-196) (natural protein) |  |  |  | 86.8% | 
25 | Venus-BimEL-L185H BH3-2A (from UniProt O54918-1 1-196) (natural protein) |  |  |  | 49.1% | 
26 | Venus-BimEL-L185M BH3-2A (from UniProt O54918-1 1-196) (natural protein) |  |  |  | 90% | 
27 | Venus-BimEL-L185P BH3-2A (from UniProt O54918-1 1-196) (natural protein) |  |  |  | 59% | 
28 | Venus-BimEL-L185R BH3-2A (from UniProt O54918-1 1-196) (natural protein) |  |  |  | 48.1% | 
29 | Venus-BimEL-L185S BH3-2A (from UniProt O54918-1 1-196) (natural protein) |  |  |  | 73.5% | 
30 | Venus-BimEL-V192E BH3-2A (from UniProt O54918-1 1-196) (natural protein) |  |  | 54.5% | 52.6% | 
31 | Venus-BimEL-dCTS (domain or fragment) | 60% | 69% |  |  | 
32 | Venus-BimEL-dCTS BH3-2A (domain or fragment) |  |  | 13.6% | 15.1% | 
33 | Venus-BimEL-dN (domain or fragment) | 90.5% | 90.8% |  |  | 
